Experimental findings from article PMC3126804 are described below.

For test [1], the target named is heat shock protein 60 (Hsp60) on human ileocecal epithelial HCT-8 cells (human (endogenous in HCT-8)) (UniProt P10809). Put plainly: adhesion of protein-coated fluospheres to cell monolayers; sulphate-modified fluospheres (1.0 µm) coated with 160 µg/mL of each purified protein (average bound 140 µg/ml) or 0.1% BSA, added to confluent HCT-8 monolayers (cells to spheres about 1:100), 2 h at 37°C, washed five times, read at 485/538 nm; also after pretreatment of cells with anti-Hsp60 MAb (1 µg/well, 1 h).

For test [2] the target is unchanged. Put plainly: adhesion of protein-coated fluospheres to cell monolayers; as the fluosphere assay on HCT-8 monolayers, but protein concentrations adjusted to have an equal number of molecules of each protein before immobilising on beads.
For test [3], the target named is Listeria adhesion protein (LAP), full-length (Listeria monocytogenes). Put plainly: ELISA; called immunofluorescence assay in microtiter plates: LAP proteins immobilised at 62.5–500 ng/100 µL (0.05 M sodium carbonate, pH 9.6) in Immulon 4HBX plates; Hsp60 100 µL of 2.4 µg/mL, RT 1.5 h; anti-Hsp60, HRP anti-mouse, fluorescent substrate Super Red; controls subtracted; KD from the 1-site binding equation (Prism 3).

In test [4] the target is LAP subdomain N2 (Gly224–Gly411) (Listeria monocytogenes (strain F4244)). Described as above.

In the case of “Listeria adhesion protein (LAP), full-length (natural protein)”, the mean fluorescence unit (fluorescence unit) stood at 999 in test [1] and 1380 in test [2].

As for “LAP subdomain N2 (Gly224–Gly411) (domain or fragment)”, the mean fluorescence unit (fluorescence unit) was determined as 1400 in test [1] and 1360 in test [2].

Usually Kd stands for a measure of binding affinity in units of concentration. Low values mean a tighter complex, high ones a looser complex. Take “heat shock protein 60 (Hsp60), purified (from UniProt P10809 27-573) (natural protein)”: the dissociation constant (Kd) in test [3] stood at 7.17 nM; in test [4] it was 9.51 nM.
